Measured values taken from the DeepSol protein solubility set.

Assay: soluble on expression in E. coli; label from the status in PepcDB or PDB records
In the case of “MVPAAENLSPIPASIDTNDIPLIANDLKLLETQAKLINILQGVPFYLPVNLTKIESLLETLTMGVSNTVDLYFHDNEVRKEWKDTLNFINTIVYTNFFLFVQNESSLSMAVQHSSNNNKTSNSERCAKDLMKIISNMHIFYSITFNFIFPIKSIKSFSSGNNRFHSNGKEFLFANHFIEILQNFIAITFAIFQRCEVILYDEFYKNLSNEEINVQLLLIHDKILEILKKIEIIVSFLRDEMNSNGSFKSIKGFNKVLNLIKYMLRFSKKKQNFARNSDNNNVTDYSQSAKNKNVLLKFPVSELNRIYLKFKEISDFLMEREVVQRSIIIDKDLESDNLGITTANFNDFYDAFYN”, the “soluble on expression in E. coli” value was “soluble”.
With “MVRHRLPSSTYYTPAGEPEWSREMFGEQSIAVLSGAYRNPIEMARHVAARCGSYQPFFVMDVAAIERRLEALRVMLPRVRPNYAVACNADPVLARVLSNNIDVNFEVSNTAELELVSMNVEPSRAVFCSQLMTRKAIKNAVLAGCSTFVVESEKQVTDVMNASPEAEIILAVCLPYSTGEVPFGCSVDEIEEILDMAHLLGANVTGIYLELGLRATLEDYITSVHDARSIFETADQKFLTLRRVCFGNLSVPTGADGAVNNEFMSFCNSLNNVIDDLFESNIDFSASIGRFLVTNAFTLCTNVIGKRAMDAKFITNDDFDDGVGFVYQTNDGVYGSFGCKQMDIKPLCKPLDVENDSEEQLHFGTILGPTLDGTDVAQRLMKSRQLRVGEWLVWEQMGAFTIPVDSEHSVPPVYYYSGKECWQKLIHKDEQRRSPSPSVSDNEDIGSDGEGGYASSCEDSEAEMALEPLIEDLNEFF” the “soluble on expression in E. coli” value was “not soluble”.
For “MVRIDLGIKGKKVIVTAASKGIGFATAKRFLEEGAKVIISSHDENNLRKAYERLKNLGEVNYIIADLTKPSDVENLIKSGYSTLGGLDVLVYVTGSPKPGNLFELTNEDWINAFYLLLMSAVIAVREAGKLMKSGGRIILSTSMTLKEPLPNLDLSNVVRLSLAGLIKVAARELGEKGILVNGVMPGWTLTDRVDQLVKDRAKREGRSEEEIIRDITRDVPLKRIGKPEEVANVILFLASELSTYVNGVLIPVDGGLIKATL”, the “soluble on expression in E. coli” value was “soluble”.
With “MVRIRRAGLEDLPGVARVLVDTWRATYRGVVPEAFLEGLSYEGQAERWAQRLKTPTWPGRLFVAESESGEVVGFAAFGPDRASGFPGYTAELWAIYVLPTWQRKGLGRALFHEGARLLQAEGYGRMLVWVLKENPKGRGFYEHLGGVLLGEREIELGGAKLWEVAYGFDLGGHKW” the “soluble on expression in E. coli” value was “soluble”.
In the case of “MVRKLKTHEQKLLKKTDFMSWQVDQQGKQGDMLRKFYVKKREHYALYNTLAAKSREVADLIKNLSESDPFRSKCTEDMLTKFYAAGLVPTSDTLERIGKVTGASFARRRLPVVMRNIGMCESVKTASDLVEQGHVRIGTKLVTDPAFMVTRSSEDMITWTKASKIKKHVMDYNNTRDDFDLMD”, the “soluble on expression in E. coli” value was “not soluble”.
In the case of “MVRRRTASPSPSAPVRSAPRPAAQSSFAAPPPRPAAAAPAYHPPAAPTPMGAPMGAPSQGPGLMKQMAATAGGVAIGSAVGHAVGGMFTGGGSSHAEQAPAAAAAPAGAPQASGYSQPCEFEWRQFVDCAQNQSDVSLCNGFNDIFKQCKARYA”, the “soluble on expression in E. coli” value was “not soluble”.
For “MVSITSDAIRNALHKVKGPNFESDIVSLGLLSEILVVHGKVFFSITVPDGRVQEWESLRRSVEEVVSALDGVEAVFVTLTTERRPEMSSQLQRDEVFFAPKRRANRLLEKMPIEGVRHVVAVASGKGGVGKSTMAINIALALQDSGFKTGLMDADIYGPSLPRLTGLVNQKPQYIDGKKLHPLEKFGLKLMSMGFLVEEENPVVWRGPMVMAAVTQLLRDVLWGPLDVLVVDMPPGTGDAQLTLAQQVQLTGALIVSTPQDLALVDARKAMEMFMKVNVPILGLIENMSYFIAPDTGKRYDIFGYGGTRAEARRRGVPFLAEVPLDAALRSSSDDGIPIFVAKPDEEHTKLYRSIVGQIKNKFF”, the “soluble on expression in E. coli” value was “not soluble”.
In the case of “MVSLDKAVIARLRKGGEEFEVLVDPYLARDLKEGKEVNFEDLLAAEEVFKDAKKGERASVDELRKIFGTDDVFEIARKIILEGEVQITAEQRREMLEAKRKQIINFISRNTIDPRTNAPHPPSRIERALEEAKVHIDIFKSVEAQVKDIVKALKPILPLKFEEMEIAIKIPPEHTGRAISALYNFGGVTREEWQRDGSWICVMRIPSGMYGDLMDLLGKVAKGEALTKVLRRIG”, the “soluble on expression in E. coli” value was “not soluble”.
In the case of “MVSNAYQGIGSEYETLLKASGRENEVFKKRVGKDRVMATTVHGWWQETMWQRSSSLFTDGRICSCWRLSPTSSRGLQPTYQRKRDFTTGRYGKNACG”, the “soluble on expression in E. coli” value was “not soluble”.
In the case of “MVSTHSSQYITDFTPVPAEPGKSPLALLAKTCETIGLPEGSSKKNGASSSSSPQGKKDEKNHILHHQHHQQQQQSKQKSSPRSTPQSKEPTLTFPGLPKPSFPMGMPGMMQGFPFFNPMMTAYGCFPGAFPMSQGFMGAQRLPCPFAMMRQPCANPACVQCPSSSSNAAKNGQMTAEMMSQFAAHPLFSMYAGMMPGVPTSSYQALLAASAAASTSAGPTDYSNVASTSKASPQPKPTAQKSQKSAKFPCNWVDSDVPCGKVFDEENELASHVKKMHAPSPSSSASSEQSTSTGKASRSSTTTPHRFNPYGKPVAPAPPTMQQMGMNMAMNPLVLPFSLQAMYSNRLMSTVAHQ”, the “soluble on expression in E. coli” value was “not soluble”.
In the case of “MVSTLKRDEALFELIALEEKRQREGLELIASENFVSKQVREAVGSVLTNKYAEGYPGARYYGGCEVIDRVESLAIERAKALFGAAWANVQPHSGSQANMAVYMALMEPGDTLMGMDLAAGGHLTHGSRVNFSGKLYKVVSYGVRPDTELIDLEEVRRLALEHRPKVIVAGASAYPRFWDFKAFREIADEVGAYLVVDMAHFAGLVAAGLHPNPLPYAHVVTSTTHKTLRGPRGGLILSNDPELGKRIDKLIFPGIQGGPLEHVIAGKAVAFFEALQPEFKEYSRLVVENAKRLAEELARRGYRIVTGGTDNHLFLVDLRPKGLTGKEAEERLDAVGITVNKNAIPFDPKPPRVTSGIRIGTPAITTRGFTPEEMPLVAELIDRALLEGPSEALREEVRRLALAHPMP”, the “soluble on expression in E. coli” value was “soluble”.
In the case of “MVTITLYMNNNIEYISKIKKGEETSFRHFVNSYSKDLFYYAQCFVRSKETAEEVVSDVFLDVWRHREEIDEIKNIKAWLLTLTHNKAISYLRKAENSSEIASWEEIDDFQIIGNLQTPDEEMISKEEIAQINSLIQTLPPKCKVVFALAKIERLPYKEIADMLNISVKTINVHVAKALEIISNGLKK”, the “soluble on expression in E. coli” value was “not soluble”.
For “MVTKEVGHDFLARLGKKRLRPGGVEATNWLIEQGQFSQDCHVLEVACNRCTTAIELAKTFGCQIDAVDLNPKVVKEAQERVAVEGLTRHITVSQASALSLPFPDNHFDIVINEAMLTMLNAQAKEKALNEYWRVLKPGGRLLTHDVAYEDPKTRQVLDELRQTIHVNVAPLSLTGWQALYQEHGFSQVTYHHGKMSLMTPRGMIKDEGLMNTLNIMRRGLKKENRQQFLKMRRFFTRTGKNLCYIAVKSVK”, the “soluble on expression in E. coli” value was “not soluble”.
In the case of “MVVFEITILGANGGPTEYGTQCFILKPARTEDPELIAVDGGAGMYQLREMLVQGRNENEGDDELVPSFYEHDREPIEFFIDSKLNIQKGLSKSLLQSLKRQGEHFESANTMKKTYEVFQGITDYYITHPHLDHISGLVVNSPSIYEQENSKKKTIWGLPHTIDVLQKHVFNDLIWPDLTAERSRKLKLKCLNPKEVQKCTIFPWDVIPFKVHHGIGVKTGAPVYSTFYIFRDRKSKDCIIVCGDVEQDRRESEESLLEEFWSYVAENIPLVHLKGILVECSCPLSSKPEQLYGHLSPIYLINELSNLNTLYNSSKGLSGLNVIVTHVKSTPAKRDPRLTILEELRFLAEERNLGDLRISIALEGHTLFL”, the “soluble on expression in E. coli” value was “not soluble”.
For “MVVNYPRAYTAEQSRPINLVGKQGQAVQISIHYPSQYICANRERILPDWQEQALFWVVIVLQQSKYPLVKSTAEIEREKEHLREKFMRFGCDLAFELRDRGYLADLIDPRTGYPMLSRPGVIPHNDTAVVKALLNYPVLKNKCSVIVHPHWGTAVYPSIFLSAALEHHHHHH”, the “soluble on expression in E. coli” value was “not soluble”.
In the case of “MVVQVQPVEVDVESLVTRVFLKAIDLLGGLHKLAEYRTLTWLPSLARAAFVIVYREEFLKTEEEIAELVGLTRQTVRNILRADPELALYKIQHIDELTKEEKKELRVHTAGGIAKLAYKKVKEGEEPKVFLEFCTMAAEALEVPWAYLLLKKIKGTHFPINSPEELKEKVKGVVIKGMPAEEVVEKIEYPVKNPADLLHKIKIHLKMMGVE”, the “soluble on expression in E. coli” value was “soluble”.
For “MVYNENTPHFYNKSGKETFMSNILFSVFPNENFIDMSLYQFGWEQCQPSHSYGPAARNHYLFHYVISGTGTLMADDTSGITQTYSVKSGQGFMIFPQQITTYIADQKLPWEYVWIEFDGLRVKEILELAGLTKSAPIYHAHSKEMREVLKEEMLYIARNPEQPPFHLIGHLYLFMDALTRSCTREQTNSAGRLRDFYIHEAIAFIEQNFQNDISVEDIAEVCGLNRSYFGKIFKETLGRSPQEFLMNYRMVKATELLKLTQLSISEISNAVGYANPLHFSRAFKNVYGESPRIWRQNHRT”, the “soluble on expression in E. coli” value was “not soluble”.
For “MVYTVDFKEVATIGLESSPVAPALAGLRANEARYFWNKYKHRFTTVPASEAPETLAWIEKILLERELHFPYKPLEISSFTLDGIKMAYVFYENGLAVNVMYTLAEEGKRAVGFKLSDGMAIPAEFEGKFKFARQKSKLAGTIRGSYFVIKGTY”, the “soluble on expression in E. coli” value was “soluble”.
With “MVYVAVLANIAGNLPALTAALSRIEEMREEGYEIEKYYILGNIVGLFPYPKEVIEVIKDLTKKENVKIIRGKYDQIIAMSDPHATDPGYIDKLELPGHVKKALKFTWEKLGHEGREYLRDLPIYLVDKIGGNEVFGVYGSPINPFDGEVLAEQPTSYYEAIMRPVKDYEMLIVASPMYPVDAMTRYGRVVCPGSVGFPPGKEHKATFALVDVDTLKPKFIEVEYDKKIIEERIRAEGLPEEIIKILYHGGRP” the “soluble on expression in E. coli” value was “soluble”.
In the case of “MWCLPLSSGNDAHMTTHIQRSALLPYPAGFLYDLVNDVARYPEFLPWCSSATVLDASESQMRASLEIAKGGLSQKFMTRNTLVPGESIVMDLVEGPFEQFHGVWTFKPLGEKACKISLDLSFDYAGTIVRATLGPLFNQAANTLVDAFCQRAKELHGLEHHHHHH”, the “soluble on expression in E. coli” value was “not soluble”.
In the case of “MWDKSLVFTFFRRRFGMALSTFKREHIKKNLRNDEYDLVIIGGGITGAGIALDASERGMKVALVEMQDFAQGTSSRSTKLVHGGLRYLKQFQIGVVAETGKERAIVYENGPHVTTPEWMLLPMHKGGTFGKFSTSIGLGMYDRLAGVKKSERKKMLSKKETLAKEPLVKKEGLKGGGYYVEYRTDDARLTIEVMKRAAEKGAEIINYTKSEHFTYDKNQQVNGVKVIDKLTNENYTIKAKKVVNAAGPWVDDVRSGDYARNNKKLRLTKGVHVVIDQSKFPLGQAVYFDTEKDGRMIFAIPREGKAYVGTTDTFYDNIKSSPLTTQEDRDYLIDAINYMFPSVNVTDEDIESTWAGIRPLIYEEGKDPSEISRKDEIWEGKSGLLTIAGGKLTGYRHMAQDIVDLVSKRLKKDYGLTFSPCNTKGLAISGGDVGGSKNFDAFVEQKVDVAKGFGIDEDVARRLASKYGSNVDELFNIAQTSQYHDSKLPLEIYVELVYSIQQEMVYKPNDFLVRRSGKMYFNIKDVLDYKDAVIDIMADMLDYSPAQIEAYTEEVEQAIKEAQHGNNQPAVKELEHHHHHH”, the “soluble on expression in E. coli” value was “soluble”.
With “MWIVFDVDGVLIDTSESYDMATKLTVEYFLSHLGIKKEVSLEIIRDMRKKGVFSDDFELSEALILMYLSGEDLPKGEGVEYLRQKLGIVLDRKDIERVFNTFYLGEIYPNSIFKFEGLWRKEKRIVDIELLKKAKETYKLGIVTGRDSLEMKLAEEIIRFKFDKVVTRDMFEKPDPRALYEVTQGEEAIYIGDSKVDEELVERYRRTFKGNVTYLMVGRDVNDVNEALKKILFQSYIRLEHHHHHH” the “soluble on expression in E. coli” value was “soluble”.
